{"source": "patent US20260226104A1", "about": "(Dana-Farber, published 2026)", "binders": {"B1": {"name": "Ac-NOXA-15 R31E (peptide)", "peptide": "Ac-AT[R8]LREFGD[S5]LNFRQ", "modifications": "staple 3-10", "notes": "also called acetylated NOXA-15 R31E SAHB; acetylated counterpart of D-NA-NOXA-15 R31E"}, "B2": {"name": "biotinylated Ac-NOXA-15 R31E SAHB (peptide)", "peptide": "Ac-AT[R8]LREFGD[S5]LNFRQK(Biotin)", "modifications": "staple 3-10", "notes": "also called acetylated counterpart of D-NA-NOXA-15 R31E"}, "B3": {"name": "D-NA-NOXA-15 R31E (peptide)", "peptide": "{D‑NA}-AT[R8]LREFGD[S5]LNFRQ", "modifications": "staple 3-10", "notes": "also called D-NA-NOXA SAHB-15 R31E; cysteine-reactive NOXA-15 R31E SAHB"}, "B4": {"name": "D-NA-NOXA-15 F32A (peptide)", "peptide": "{D‑NA}-AT[R8]LRRAGD[S5]LNFRQ", "modifications": "staple 3-10", "notes": "also called D-NA-NOXA SAHB-15 F32A; cysteine-reactive NOXA-15 F32A SAHB"}}, "key": {"MCL-1ΔNΔC": {"target": "T1, MCL-1ΔNΔC (human, UniProt Q07820 172-329)", "T1 construct": "As printed for the fluorescence polarization assay", "T1 sequence (Q07820 172-329, stated change not applied)": "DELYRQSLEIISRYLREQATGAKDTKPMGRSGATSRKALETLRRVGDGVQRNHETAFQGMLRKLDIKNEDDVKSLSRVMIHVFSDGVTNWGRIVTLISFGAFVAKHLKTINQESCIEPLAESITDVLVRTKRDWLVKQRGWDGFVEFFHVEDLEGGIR", "assay": "competitive fluorescence polarization against FITC-BID BH3", "protocol": "(§1) The warhead-bearing D-NA-NOXA-15 R31E SAHB was only able to compete with FITC-BID BH3 for binding to BFL-1ΔC C4S/C19S (FIG. 20), and this activity was dependent on the presence of Cys55 in the BH3-binding pocket, as this effect was not observed with BFL-1ΔC C4S/C19S/C55S (FIG. 21).\n(§2) Fluorescence polarization (FP) assays were performed as previously described (Pitter et al., 2008 (supra)). Briefly, direct binding curves were first generated by FITC-BID BH3 (25 nM) with serial dilutions of anti-apoptotic protein, and FP was measured at 5 min on a SpectraMax M5 microplate reader (Molecular Devices). For competition assays, a serial dilution of acetylated or warhead-bearing NOXA SAHB was added to the indicated recombinant protein at ~EC75 concentration, as determined by the direct binding assay. FITC-BID BH3 (25 nM) was then added and fluorescence polarization was measured at equilibrium. IC50 values were calculated by nonlinear regression analysis of competitive binding curves using PRISM software (GraphPad)."}, "His-BFL-1ΔC [1]": {"target": "T2, His-BFL-1ΔC (human, UniProt Q16548 1-151)", "T2 construct": "also called WT His-BFL-1ΔC; wild-type BFL-1 construct; not shown: N-terminal hexahistidine tag (pET17b)", "T2 sequence": "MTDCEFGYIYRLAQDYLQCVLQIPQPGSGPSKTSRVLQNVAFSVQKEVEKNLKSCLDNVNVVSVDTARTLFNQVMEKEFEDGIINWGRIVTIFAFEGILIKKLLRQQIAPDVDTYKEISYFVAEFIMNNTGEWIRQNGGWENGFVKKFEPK", "assay": "streptavidin pull-down of biotinylated SAHB from an equimolar mixture of recombinant GST-MCL-1ΔNΔC, BCL-XLΔC and His-BFL-1ΔC; silver stain", "protocol": "The biotinylated D-NA-NOXA-15 F32A SAHB or corresponding acetylated construct was incubated in an equimolar mixture with recombinant BFL-1, BCL-XL, and MCL-1, and then subjected to streptavidin pull-down. […] Additionally, the preferential interactions of these peptides were assessed with endogenous protein in lysates from the A375P melanoma cell line.\nWT His-BFL-1ΔC, BCL-XLΔC (tagless), and GST-MCL-1ΔNΔC (1 μM each) were combined and incubated with 3 mM DTT in PBS for thirty minutes at room temperature. Mixtures were treated with vehicle or the indicated C-terminally biotinylated NOXA SAHB (1 μM) for four hours and were then added to 30 μL PBS-washed high-capacity streptavidin (SA) agarose beads (Thermo Fisher Pierce) and incubated with rotation at room temperature for two hours. The beads were then washed three times with NP-40 lysis buffer (1% NP-40, 50 mM Tris pH 8, 100 mM NaCl, 2.5 mM MgCl2) and three times with PBS. To elute bound protein, beads were boiled for ten minutes with 10% SDS containing 10 mg/mL biotin. After elution, samples were boiled with 3×LDS and 2M DTT for twenty minutes. Gel electrophoresis using a 12% Bis-Tris gel was conducted on inputs (2%) and eluates ([…]) and gels were developed using the Pierce silver staining kit (Thermo Fisher)."}, "His-BFL-1ΔC C4S/C19S": {"target": "T3, His-BFL-1ΔC C4S/C19S (human, UniProt Q16548 1-151)", "T3 construct": "also called BFL-1 C4S/C19S; not shown: N-terminal hexahistidine tag (pET17b)", "T3 chain": "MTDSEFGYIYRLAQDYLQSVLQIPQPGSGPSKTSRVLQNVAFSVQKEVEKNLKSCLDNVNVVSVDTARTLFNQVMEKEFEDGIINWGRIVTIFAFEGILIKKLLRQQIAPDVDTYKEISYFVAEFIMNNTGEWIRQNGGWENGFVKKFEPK", "assay": "competitive fluorescence polarization against FITC-BID BH3", "protocol": "as §1, §2"}, "His-BFL-1ΔC [2]": {"target": "T2, His-BFL-1ΔC", "assay": "in vitro covalent conjugation; reducing and denaturing gel electrophoresis"}, "[3]": {"target": "T4, recombinant full-length BFL-1 (human, UniProt Q16548 1-175)", "T4 construct": "not shown: N-terminal hexahistidine tag", "T4 sequence": "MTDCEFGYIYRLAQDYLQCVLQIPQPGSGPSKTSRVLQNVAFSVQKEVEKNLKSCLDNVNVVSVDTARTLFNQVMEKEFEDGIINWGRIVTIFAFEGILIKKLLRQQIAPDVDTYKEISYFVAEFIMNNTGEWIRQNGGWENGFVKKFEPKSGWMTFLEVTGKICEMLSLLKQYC", "assay": "in vitro covalent conjugation; reducing and denaturing gel electrophoresis"}, "full length HA-BFL1": {"target": "T5, full length HA-BFL1 (human, UniProt Q16548 1-175)", "T5 construct": "also called HA-tagged full-length BFL-1; expressed full-length BFL-1; not shown: HA tag", "T5 sequence": "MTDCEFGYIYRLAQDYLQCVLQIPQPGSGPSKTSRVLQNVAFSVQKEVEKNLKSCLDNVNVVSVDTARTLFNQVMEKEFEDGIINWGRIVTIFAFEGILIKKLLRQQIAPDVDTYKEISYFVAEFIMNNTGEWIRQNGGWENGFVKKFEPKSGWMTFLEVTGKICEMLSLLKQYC", "assay": "293T cells treated with 20 µM NOXA SAHB for 12 hours; anti-HA western of lysates", "description": "Of note, native BFL-1 runs at a higher molecular weight than recombinant or expressed BFL-1."}}, "note": "Bridges are numbered along the chain shown (N, C = ends). Where no end group is shown, it is not given here. [ ]: non-standard residue; d: D form. The star is where a group is joined. D‑NA = N-terminal D-nipecotic acid moiety terminating in acrylamide (cysteine-reactive warhead); Biotin = O=C1N[C@H]2[C@H](CS[C@H]2CCCCC(=O)*)N1; R8 = C=CCCCCCC[C@@](C)(N)C(=O)O; S5 = C=CCCC[C@](C)(N)C(=O)O", "data": [{"binder": "B1", "values": [{"measurement": "binding result", "setting": "MCL-1ΔNΔC", "result": "binds"}]}, {"binder": "B2", "values": [{"measurement": "binding result", "setting": "His-BFL-1ΔC [1]", "result": "no binding (tested: 1 µM)"}]}, {"binder": "B3", "values": [{"measurement": "binding result", "setting": "His-BFL-1ΔC C4S/C19S", "result": "binds"}, {"measurement": "binding result", "setting": "MCL-1ΔNΔC", "result": "binds"}, {"measurement": "binding result", "setting": "His-BFL-1ΔC [2]", "result": "binds"}, {"measurement": "binding result", "setting": "[3]", "result": "binds"}, {"measurement": "binding result", "setting": "full length HA-BFL1", "result": "binds"}]}, {"binder": "B4", "values": [{"measurement": "binding result", "setting": "His-BFL-1ΔC [2]", "result": "binds"}, {"measurement": "binding result", "setting": "[3]", "result": "binds"}, {"measurement": "binding result", "setting": "full length HA-BFL1", "result": "binds"}]}]}
